# T1: Mex67 (in Mex67-Mtr2 heterodimer);Mtr2 (in Mex67-Mtr2 heterodimer) (Saccharomyces cerevisiae;Saccharomyces …, UniProt Q99257;P34232 1-599;1-184, |)
# T1 sequence 1: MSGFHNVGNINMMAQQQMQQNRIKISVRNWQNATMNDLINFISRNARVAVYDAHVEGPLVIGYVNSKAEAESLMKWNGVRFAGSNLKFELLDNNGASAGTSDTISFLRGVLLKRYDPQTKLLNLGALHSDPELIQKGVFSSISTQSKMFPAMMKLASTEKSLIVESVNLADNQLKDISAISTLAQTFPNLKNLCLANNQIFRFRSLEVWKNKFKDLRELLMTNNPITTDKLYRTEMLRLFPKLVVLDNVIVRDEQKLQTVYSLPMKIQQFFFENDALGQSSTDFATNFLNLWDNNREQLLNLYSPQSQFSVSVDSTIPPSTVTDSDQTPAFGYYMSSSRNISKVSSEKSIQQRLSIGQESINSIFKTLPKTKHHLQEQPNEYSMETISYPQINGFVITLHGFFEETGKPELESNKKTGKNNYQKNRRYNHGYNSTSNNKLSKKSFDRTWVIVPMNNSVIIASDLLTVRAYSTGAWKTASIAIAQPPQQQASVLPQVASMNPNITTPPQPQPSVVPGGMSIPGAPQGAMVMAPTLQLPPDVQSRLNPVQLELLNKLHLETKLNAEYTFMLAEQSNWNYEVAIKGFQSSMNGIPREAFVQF
# T1 sequence 2: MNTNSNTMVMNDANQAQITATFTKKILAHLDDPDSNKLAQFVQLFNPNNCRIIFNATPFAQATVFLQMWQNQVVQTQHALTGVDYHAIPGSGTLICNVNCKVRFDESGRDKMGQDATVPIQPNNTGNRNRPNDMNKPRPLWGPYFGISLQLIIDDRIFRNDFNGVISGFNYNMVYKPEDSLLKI
# Columns and labels:
# [1] = target: T1, Mex67 (in Mex67-Mtr2 heterodimer);Mtr2 …; experiment: EMSA; 4 uM RNA; full upshift at 2-fold, saturated at 5-fold molar excess; 30 mM HEPES-KOH, 160 mM KCl, pH 7.6, Ribolock, 30 C 15 min; 4 uM RNA with 4-44 uM Mex67-Mtr2 (competition 3 uM RNA, 12 uM protein); 0.5% agarose, 1x TAE pH 9.5, 4 C; details: protein: recombinant;recombinant; HisFF purification;; copies: 1;1; label: FAM; single strand
# [2] = target: T1, Mex67 (in Mex67-Mtr2 heterodimer);Mtr2 …; experiment: EMSA; 4 uM RNA; full upshift at 3-fold, saturated at 10-fold molar excess; 30 mM HEPES-KOH, 160 mM KCl, pH 7.6, Ribolock, 30 C 15 min; 4 uM RNA with 4-44 uM Mex67-Mtr2 (competition 3 uM RNA, 12 uM protein); 0.5% agarose, 1x TAE pH 9.5, 4 C; details: protein: recombinant;recombinant; HisFF purification;; copies: 1;1; label: FAM on one strand; blunt
# [3] = target: T1, Mex67 (in Mex67-Mtr2 heterodimer);Mtr2 …; experiment: competition; N4 added to complex preformed on N1; labels switched, same effect; 30 mM HEPES-KOH, 160 mM KCl, pH 7.6, Ribolock, 30 C 15 min; 4 uM RNA with 4-44 uM Mex67-Mtr2 (competition 3 uM RNA, 12 uM protein); 0.5% agarose, 1x TAE pH 9.5, 4 C; details: protein: recombinant;recombinant; HisFF purification;; copies: 1;1; label: Cy5 on one strand; blunt
binder,measurement,setting,value
"UUUUUUUUAUUGCCUGGUUGCCUGGUUAUUUCUAUU (ssRNA) [36-nt ssRNA, FAM]",binding result,[1],binds
"36-bp dsRNA, FAM (dsRNA) RNA 1: UUUUUUUUAUUGCCUGGUUGCCUGGUUAUUUCUAUU RNA 2: AAUAGAAAUAACCAGGCAACCAGGCAAUAAAAAAAA",binding result,[2],binds
"36-bp dsRNA, Cy5 (dsRNA) RNA 1: UUAUAUGUCUUGUUCUCUUGUAUCUGUUCUUGUUGU RNA 2: ACAACAAGAACAGAUACAAGAGAACAAGACAUAUAA",binding result,[3],binds
